B1: SUN domain-containing protein 2 (Mus musculus), Q8BJS4-3 (parent)
chain: MSRRSQRLTRYSQDDNDGGSSSSGASSVAGSQGTVFKDSPLRTLKRKSSNMKHLSPAPQLGPSSDSHTSYYSESVVRESYIGSPRAVSLARSALLDDHLHSEPYWSGDLRGRRRRGTGGSESSKANGLTAESKASEDFFGSSSGYSSEDDLAGRLFGLLYWWIGTTWYRLTTAASLLDVFVLTRSRHFSLNLKSFLWFLLLLLLLTGLTYGAWHFYPLGLQTLQPAVVSWWAAKESRKQPEVWESRDASQHFQAEQRVLSRVHSLERRLEALAADFSSNWQKEAIRLERLELRQGAAGHGGGSSLSHEDALSLLEGLVSRREATLKEDLRRDTVAHIQEELATLRAEHHQDSEDLFKKIVQASQESEARVQQLKTEWKSMTQEAFQESSVKELGRLEAQLASLRQELAALTLKQNSVADEVGLLPQKIQAARADVESQFPDWIRQFLLGDRGARSGLLQRDEMHAQLQELENKILTKMAEMQGKSAREAAASLGQILQKEGIVGVTEEQVHRIVKQALQRYSEDRIGMVDYALESGGASVISTRCSETYETKTALLSLFGIPLWYHSQSPRVILQPDVHPGNCWAFQGPQGFAVVRLSARIRPTAVTLEHVPKALSPNSTISSAPKDFAIFGFDEDLQQEGTLLGTFAYDQDGEPIQTFYFQASKMATYQVVELRILTNWGHPEYTCIYRFRVHGEPAH

Variants of: B1
Conditions: with Syne2, Q6ZWQ0-1

Row | Variant | effect of a mutation on the interaction
1 | L400A;L403A | disrupting interaction strength

— IntAct's records for PubMed 26688217
